Measured values as given in patent publication US20090214518A1.

Molecular target: Endothelin B receptor (ETRB) (human) (UniProt P24530)
Assay: cell-based or functional assay

Chain of UniProt P24530 (P24530 27-442 limits assumed): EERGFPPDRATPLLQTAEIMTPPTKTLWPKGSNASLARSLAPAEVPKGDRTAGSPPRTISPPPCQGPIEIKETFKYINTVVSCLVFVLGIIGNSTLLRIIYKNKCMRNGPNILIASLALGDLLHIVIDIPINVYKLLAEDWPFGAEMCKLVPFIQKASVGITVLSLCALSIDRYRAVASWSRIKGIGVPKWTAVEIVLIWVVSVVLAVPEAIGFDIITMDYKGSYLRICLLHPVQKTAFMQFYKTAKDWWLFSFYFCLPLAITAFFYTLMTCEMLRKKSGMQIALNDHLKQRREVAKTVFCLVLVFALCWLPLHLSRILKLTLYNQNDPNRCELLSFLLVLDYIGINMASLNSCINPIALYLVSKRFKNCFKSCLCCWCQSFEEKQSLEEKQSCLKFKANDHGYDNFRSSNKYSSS

## ETRB antagonist peptide, BQ-788
  ICAM-1 mRNA in HUVEC (qRT-PCR): > 7 fold
  adherence of activated human T cells to HUVEC: 40%
